# Experimental data published in the nanobody polyreactivity screen of Harvey et al. (2022).
# Assay: yeast display, Sf9 membrane polyspecificity reagent, FACS + sequencing; frameworks hold sequencing errors
# In short: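 Nanobodies came from a synthetic yeast display library in Saccharomyces cerevisiae BJ5465, induced with galactose for 36–48 hours and stained for 1 hour at 4 °C with 10% biotinylated, detergent-solubilized Sf9 membrane reagent. Cells were enriched on streptavidin microbeads and then FACS-sorted, with low and high (top ~1%) gates set on anti-HA fluorescence for expression and streptavidin fluorescence for reagent binding. Each polyreactivity label reflects the gate a clone came from. Genes were amplified by colony PCR, sequenced by MiSeq 2 × 250 and filtered by CDR length.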
row,Sequence,polyreactivity (PSR sort gate)
1,QVQLVESGGGLVQAGGSLRLSCAASGRIFKYYVMGWYRQAPGKERELVAGISSSGVSTYYADSVKGRFTISRDNAKNTVYLQMNSLKPEDTAVYYCNAKSRTGYGRGDYWGQGTQVTVSS,high polyreactivity
2,QVQLVESGGGLVQAGGSLRLSCAASGRIFLGNAMGWYRQAPGKDRELVAAITNGGGSTYYADSVKGRFTISRDNAKNTVYLQMNSLKPEDTAVYYCARGYKKSVQRFEYWGQGTQVTVSS,high polyreactivity
3,QVQLVESGGGLVQAGGSLRLSCAASGRIFLGNAMGWYRQAPGKERELVAAITNGGGSTYYADSVKGRFTISRDNAKNTVYLQMNSLKPEDTAVYYCAAPVRQSSYTRYDSWGQGTQVTVSS,high polyreactivity
4,QVQLVESGGGLVQAGGSLRLSCAASGRIFLGNAMGWYRQAPGKERELVAAITNGGGSTYYADSVKGRFTISRDTAKNTVYLQMNSLKPEDTAVYYCARGYKKSVQRFEYWGQGTQVTVSS,high polyreactivity
5,QVQLVESGGGLVQAGGSLRLSCAASGRIFLGYTMGWYRQAPGKERELVAAISYSGGSTYYADSVKGRFTISRDYAKNTVYFQMNSLKPEDTAVYYCNKVYSIRGYWGQGTQVTVSS,high polyreactivity
6,QVQLVESGGGLVQAGGSLRLSCAASGRIFLGYTMGWYRQAPGKERELVASMTWSGGSTYYADSVKGRFTISRDKAKNTVYVQMNSLKPEDTAVYYCIAVFWVARGRYDYWGQGTQVTVSS,high polyreactivity
7,QVQLVESGGGLVQAGGSLRLSCAASGRIFLHNAMGWYRQAPGKERELVAAITSGGNTNYADSVKGRFTISRDNAKNTVYLQMNSLKPEDTAVYYCATVGKVHHRLVAMDYWGQGTQVTVSS,low polyreactivity
8,QVQLVESGGGLVQAGGSLRLSCAASGRIFLLNAMGWYRQAPGKERELVARISSGRTYYADSVKGRFTISRDNAKNTVFLQMISLKPEDTAVYYCNATVSSSKFRYFYVNPYDYWGQGTQVTVSS,low polyreactivity
9,QVQLVESGGGLVQAGGSLRLSCAASGRIFLNYDMGWYRQAPGKERELVADISISGSTDYADSVKGRFTISRDNAKNTVYLQMNSLKPEDTAVYYCATSFYVSDYYVPYEMGYWGQGTQVTVSS,low polyreactivity
10,QVQLVESGGGLVQAGGSLRLSCAASGRIFLQNAMGWYRQAPWKERELVASISSSGGTTYYADSVKGRFTISRDNAKNTVYLQMNSLKPEDTAVYYCAADYGHYSTPMDYWGQGTQVTVSS,low polyreactivity
11,QVQLVESGGGLVQAGGSLRLSCAASGRIFLRNAMGWYRQAPGKERELVATITSRGGSTYYADSVRGRFTISRDNAKNTVYLQMNSLKPEDTAVYYCAAKVAWGHWRGYDYWGQGTQVTVSS,low polyreactivity
12,QVQLVESGGGLVQAGGSLRLSCAASGRIFLSNAMGWYIQAPGKEREFVAAISWRGGSTYYADSVKGRFTISRDNAKNTVYLQMNSLKPEDTAVYYCAVDVRYYYGRSYDYWGQGTQVTVSS,high polyreactivity
13,QVQLVESGGGLVQAGGSLRLSCAASGRIFLSYAMGVYRQAPGKERELVAGITGTGGRTYYADSVKGRFTISRDNAKNTVYLLMNSLIPEDTAVSYCAAQRRDNIDPKHYYWGQGTQVTVSS,low polyreactivity
14,QVQLVESGGGLVQAGGSLRLSCAASGRIFLSYTMGWYRQAPGKERELVAAITSGGSTYYADSVKGRFTISRDNAKNTVYLQMNSLKPEDTAVYYCATDYGYSWYDYWGQGTQVTVSS,low polyreactivity
15,QVQLVESGGGLVQAGGSLRLSCAASGRIFLTNTMGWYRQAPGKERELVAGISRGGRTYYADSVKGRFTISRDNAKNTVYLQMNSLKPEDTAVYYCNARLRHSQYAYYYWGQGTQVTVSS,high polyreactivity
16,QVQLVESGGGLVQAGGSLRLSCAASGRIFLVNTMGWYRQAPGKERELVATITFSVVRTYYADSVKGRFTISRDNAKNSVYLQMNSLKPEVTAVYYCAKQHLVSVPEMYYWGQGTQVTVSS,low polyreactivity
17,QVQLVESGGGLVQAGGSLRLSCAASGRIFLVYAMGWYRQAPGKERELVAAITKRGGSTYYADSVKGRFTISRDNAKNTVYLQMNSLKPEDTAVYYCAADGYTRGYDYWGQGTQVTVSS,high polyreactivity
18,QVQLVESGGGLVQAGGSLRLSCAASGRIFLYAMGWYRQAPGKERELVAAINRGGSTYYADSVKGRFTISRDNAKNTVYLEMNSLKPEDTAVYYCAAKRLTCRQHDYWGQGTQVTVSS,high polyreactivity
19,QVQLVESGGGLVQAGGSLRLSCAASGRIFLYYAMGWYRQAPGKERELVAAISRRGASTYYADSVKGRFTISRDNAKNTVYLQMNSLKPEDTAVYYCATVPGKSGDYWGQGTQVTVSS,high polyreactivity
20,QVQLVESGGGLVQAGGSLRLSCAASGRIFLYYAMGWYRQAPGKERELVAAITWSGGSTYYADSVKGRFTISRDNAKNTVYLQMNSLKPEDTAVYYCAADYLYGQTIYQVPSHYYYWGQGTQVTVSS,low polyreactivity
21,QVQLVESGGGLVQAGGSLRLSCAASGRIFLYYNMGWYRQAPGKERELVADITWRGGSTYYADSVKGRFTISRDNAKNTVYLQMNSLKPEDTAVYYCNAVSVSSKRSDYWGQGTQVTVSS,low polyreactivity

row,Sequence,polyreactivity (PSR sort gate)
1,QVQLVESGGGLVQAGGSLRLSCAASGRIFNGNALGWYRQAPGNERELVAAISSGGRTYYADSVKGRFTISRDNAKNTVYLQMNSLKPEDTAVYYCNARGYSGRVIPEYYYWGQGTQVTVSS,high polyreactivity
2,QVQLVESGGGLVQAGGSLRLSCAASGRIFNGNAMGWYRQAPGKESELVAAISTSGGRTYYADSVKGRFTISRDNAKNTVYLQMNSLKPEDTAVYYCAARYFRRDYIDYDLWGQGTQVTVSS,low polyreactivity
3,QVQLVESGGGLVQAGGSLRLSCAASGRIFNGYAMGWYRQAPGKERELVAAISKSGTRTYYADSVKGRFTISRDNAKNTVYLQMTSLKPEDTAVYYCNARVYRYDTYNEYYYWGQGTQVTVSS,high polyreactivity
4,QVQLVESGGGLVQAGGSLRLSCAASGRIFNIYAMGWYRQAPGKERELVAAIRWNGGSTYYADSVKGRFTISRDNAKYTVYLQMYSLKPEDSAVYYCAAARRRRFYDYYNAWYDVDYWGQGTQVSVSS,low polyreactivity
5,QVQLVESGGGLVQAGGSLRLSCAASGRIFNKNAMGWYRQAPGKERELVAAISWSGTSTYYADSVKGRFTISRDTAKNTVYLQMHSLKPEDTAVYYCAAADFYYTGADDYWGQGTQVTVSS,high polyreactivity
6,QVQLVESGGGLVQAGGSLRLSCAASGRIFNKNAMGWYRQAPGKERELVAAITYSGGSTYYADSVKGRFTISRDNAKNTVYLQMNSLKPEDTAVYYSARDLYYVYSFAPYRYEYWGQGTQVTVSS,low polyreactivity
7,QVQLVESGGGLVQAGGSLRLSCAASGRIFNPNAMGWYRQAPGKERELVAAITSGDSTNYADSVKGRFTISRDNAKNTVYLQMNSLKPEDTAVYYCAAGPSKRPPWLRQGGYDYWGQGTQVTVSS,low polyreactivity
8,QVQLVESGGGLVQAGGSLRLSCAASGRIFNPYAMGWYRQAPWKERELVAAIRRSGVDTYYADSVKGRFTNSRDNAKNTVYFQMNSLKPEDTAVYYCNAVYKRIGYSEFDYWGQGTQVTVSS,low polyreactivity
9,QVQLVESGGGLVQAGGSLRLSCAASGRIFNQYGMGWYRQAPGKERELVAAIRSGDSTNYADSVKGRFTISRDNAKNTVYLQMNSLKPEDTAVYYCKAVPSQHDEFDYWGQGTQVTVSS,low polyreactivity
10,QVQLVESGGGLVQAGGSLRLSCAASGRIFNRYAMGWYRQAPGKERELVASISLSGDSTYYADSVKGRFTISRDNAKNTVYLQMNSLKPEDTAVYYCAVEGLGAAVYAGDRYDYWGQGTQVTVSS,low polyreactivity
11,QVQLVESGGGLVQAGGSLRLSCAASGRIFNSYGMGWYRHAPGKEREFVAAISRSGGITYYADSVKGRFTISRDNAKNTVYLQMNSLKPEDSAVYYCAADYYWRRQRQVGYWGQGTQVTVSS,high polyreactivity
12,QVQLVESGGGLVQAGGSLRLSCAASGRIFNVYAMGWYRQAPGKERELVASITSAGSTYYADSVKGRFTISRDNAKNTVYLQMNSLKPEDTAVYYCAADSYSVYYYTYDSWGQGTQVTVSS,low polyreactivity
13,QVQLVESGGGLVQAGGSLRLSCAASGRIFNWYAMGWYRKAPGKERELVAAISTDGSTYYADSVKGRFTISRDNAKNTVFLQMNSLKPEDTAVYYCAAVPGYTHLWGGPFDYWGQGTQVTVSS,low polyreactivity
14,QVQLVESGGGLVQAGGSLRLSCAASGRIFNYYAMGWYRQAPGKERELVAAISARGGSTYYADSVKGRFTISRDNAKNTVYLQMNSLKPEDNAVYYCAKRLYYSYGKYLLGAYYYWGQGTQVTVSS,high polyreactivity
15,QVQLVESGGGLVQAGGSLRLSCAASGRIFNYYAMGWYRQAPGKERELVAAISARGGSTYYADSVKGRFTISRDNAKNTVYLQMNSLKPEDTAVYYCAVSSGSYGYGYWGQGTQVTVSS,high polyreactivity
16,QVQLVESGGGLVQAGGSLRLSCAASGRIFNYYAMGWYRQAPGKERELVATISRNGGRTYYADSVKGRFTISRDNAKNTVYLQMNSLKPEVTAVYYCATDGLYRYDYWGQGTQVTVSS,high polyreactivity
17,QVQLVESGGGLVQAGGSLRLSCAASGRIFNYYAMGWYRQAPGKVTEFVASITSRGGTTYYADSVKGRFTISRDNAKNTVYLQMNCLKTEDTAVYFCAAVTRQGSRRSRMNYWGQGTQVTVSS,high polyreactivity
18,QVQLVESGGGLVQAGGSLRLSCAASGRIFPANAMGWYRQAPGKERELVAAISSSGGSTYYADSVKGRFTISRDNAKNTVYLQMNSLKPEDTAVYYCAKVHYRWPRVTWPNVWWSFEYWGQGTQVTVSS,low polyreactivity
19,QVQLVESGGGLVQAGGSLRLSCAASGRIFPAYAMGWYRQAPGKERELVASIRRGGITYADSVKGRFTSSRDNAKNTVYLQMNSLKPEDTAVYYCNADKYGPSAYDYWGQGTQVTVSS,low polyreactivity
20,QVQLVESGGGLVQAGGSLRLSCAASGRIFPAYAMGWYRQPPGKERELVASIRRGGITYADSVKGRFTISRDNAKNTVYLQMNSLKPEDTAVYYCARPQWRDWYGYWGQGTQVTVSS,low polyreactivity
